{"source": "patent US20250171562A1", "about": "(ALK ABELL, published 2025)", "binders": {"B1": {"name": "CIgG4B1A1(no linker) (Fc fusion)", "chain 1": "GPPCPPCPAPEFLGGPSVFLFPPKPKDTLMISRTPEVTCVVVDVSQEDPEVQFNWYVDGVEVHNAKTKPREEQFNSTYRVVSVLTVLHQDWLNGKEYKCKVSNKGLPSSIEKTISKAKGQPREPQVYTLPPCQEEMTKNQVSLWCLVKGFYPSDIAVEWESNGQPENNYKTTPPVLDSDGSFFLYSRLTVDKSRWQEGNVFSCSVMHEALHNHYTQKSLSLSLGKQVQLQESGGGLVQTGGSLRLSCAVHGRTFSNTGMGWFRQAPGNERQFVAIISPSGTSTYYADSVKGRFTISRDPAKNTVYLQMNSLKMDDTAVYYCAASYGSNWSTLRHQRRNEYDAWGQGTQVAVS", "chain 2": "GPPCPPCPAPEFLGGPSVFLFPPKPKDTLMISRTPEVTCVVVDVSQEDPEVQFNWYVDGVEVHNAKTKPREEQFNSTYRVVSVLTVLHQDWLNGKEYKCKVSNKGLPSSIEKTISKAKGQPREPQVCTLPPSQEEMTKNQVSLSCAVKGFYPSDIAVEWESNGQPENNYKTTPPVLDSDGSFFLVSRLTVDKSRWQEGNVFSCSVMHEALHNHYTQKSLSLSLGKEVQLLESGGGLVQPGGSLRLSCAASGFTFGNYDMAWVRQAPGKRPEWVSSIDTGGDITHYADSVKGRFTISRDNAKNTLYLQMNSLRPEDTAVYWCATDEEYALGPNEFDYYGQGTLVTVSS"}, "B2": {"name": "CIgG4F6A1(RS) (Fc fusion)", "chain 1": "GPPCPPCPAPEFLGGPSVFLFPPKPKDTLMISRTPEVTCVVVDVSQEDPEVQFNWYVDGVEVHNAKTKPREEQFNSTYRVVSVLTVLHQDWLNGKEYKCKVSNKGLPSSIEKTISKAKGQPREPQVYTLPPCQEEMTKNQVSLWCLVKGFYPSDIAVEWESNGQPENNYKTTPPVLDSDGSFFLYSRLTVDKSRWQEGNVFSCSVMHEALHNHYTQKSLSLSLGKRSDVQLQESGGGLVQAGGSLRLSCAASGLTFGSYDMGWYRQAPGKQRELVGRIRNDGITYYADSVKGRFTMSRDNAKNTVYLQMNSLKPEDTAVYYCAADGTGLGHYDYWGQGTQVTVS", "chain 2": "GPPCPPCPAPEFLGGPSVFLFPPKPKDTLMISRTPEVTCVVVDVSQEDPEVQFNWYVDGVEVHNAKTKPREEQFNSTYRVVSVLTVLHQDWLNGKEYKCKVSNKGLPSSIEKTISKAKGQPREPQVCTLPPSQEEMTKNQVSLSCAVKGFYPSDIAVEWESNGQPENNYKTTPPVLDSDGSFFLVSRLTVDKSRWQEGNVFSCSVMHEALHNHYTQKSLSLSLGKRSEVQLLESGGGLVQPGGSLRLSCAASGFTFGNYDMAWVRQAPGKRPEWVSSIDTGGDITHYADSVKGRFTISRDNAKNTLYLQMNSLRPEDTAVYWCATDEEYALGPNEFDYYGQGTLVTVSS"}, "B3": {"name": "CIgG4B1A1(GS) (Fc fusion)", "chain 1": "GPPCPPCPAPEFLGGPSVFLFPPKPKDTLMISRTPEVTCVVVDVSQEDPEVQFNWYVDGVEVHNAKTKPREEQFNSTYRVVSVLTVLHQDWLNGKEYKCKVSNKGLPSSIEKTISKAKGQPREPQVYTLPPCQEEMTKNQVSLWCLVKGFYPSDIAVEWESNGQPENNYKTTPPVLDSDGSFFLYSRLTVDKSRWQEGNVFSCSVMHEALHNHYTQKSLSLSLGKGSQVQLQESGGGLVQTGGSLRLSCAVHGRTFSNTGMGWFRQAPGNERQFVAIISPSGTSTYYADSVKGRFTISRDPAKNTVYLQMNSLKMDDTAVYYCAASYGSNWSTLRHQRRNEYDAWGQGTQVAVS", "chain 2": "B2 chain 2 with R226G"}, "B4": {"name": "CIgG4F6A1(G4S)1 (Fc fusion)", "chain 1": "GPPCPPCPAPEFLGGPSVFLFPPKPKDTLMISRTPEVTCVVVDVSQEDPEVQFNWYVDGVEVHNAKTKPREEQFNSTYRVVSVLTVLHQDWLNGKEYKCKVSNKGLPSSIEKTISKAKGQPREPQVYTLPPCQEEMTKNQVSLWCLVKGFYPSDIAVEWESNGQPENNYKTTPPVLDSDGSFFLYSRLTVDKSRWQEGNVFSCSVMHEALHNHYTQKSLSLSLGKGGGGSDVQLQESGGGLVQAGGSLRLSCAASGLTFGSYDMGWYRQAPGKQRELVGRIRNDGITYYADSVKGRFTMSRDNAKNTVYLQMNSLKPEDTAVYYCAADGTGLGHYDYWGQGTQVTVS", "chain 2": "GPPCPPCPAPEFLGGPSVFLFPPKPKDTLMISRTPEVTCVVVDVSQEDPEVQFNWYVDGVEVHNAKTKPREEQFNSTYRVVSVLTVLHQDWLNGKEYKCKVSNKGLPSSIEKTISKAKGQPREPQVCTLPPSQEEMTKNQVSLSCAVKGFYPSDIAVEWESNGQPENNYKTTPPVLDSDGSFFLVSRLTVDKSRWQEGNVFSCSVMHEALHNHYTQKSLSLSLGKGGGGSEVQLLESGGGLVQPGGSLRLSCAASGFTFGNYDMAWVRQAPGKRPEWVSSIDTGGDITHYADSVKGRFTISRDNAKNTLYLQMNSLRPEDTAVYWCATDEEYALGPNEFDYYGQGTLVTVSS"}, "B5": {"name": "CIgG4A1B1(G4S)1 (Fc fusion)", "chain 1": "GPPCPPCPAPEFLGGPSVFLFPPKPKDTLMISRTPEVTCVVVDVSQEDPEVQFNWYVDGVEVHNAKTKPREEQFNSTYRVVSVLTVLHQDWLNGKEYKCKVSNKGLPSSIEKTISKAKGQPREPQVCTLPPSQEEMTKNQVSLSCAVKGFYPSDIAVEWESNGQPENNYKTTPPVLDSDGSFFLVSRLTVDKSRWQEGNVFSCSVMHEALHNHYTQKSLSLSLGKGGGGSQVQLQESGGGLVQTGGSLRLSCAVHGRTFSNTGMGWFRQAPGNERQFVAIISPSGTSTYYADSVKGRFTISRDPAKNTVYLQMNSLKMDDTAVYYCAASYGSNWSTLRHQRRNEYDAWGQGTQVAVS", "chain 2": "B4 chain 2 with C127Y, S132C, S144W, A146L, V185Y", "notes": "B1 on the hole (437), A1 on the knob (106)"}, "B6": {"name": "CIgG4F5A1(G4S)3 (Fc fusion)", "chain 1": "GPPCPPCPAPEFLGGPSVFLFPPKPKDTLMISRTPEVTCVVVDVSQEDPEVQFNWYVDGVEVHNAKTKPREEQFNSTYRVVSVLTVLHQDWLNGKEYKCKVSNKGLPSSIEKTISKAKGQPREPQVYTLPPCQEEMTKNQVSLWCLVKGFYPSDIAVEWESNGQPENNYKTTPPVLDSDGSFFLYSRLTVDKSRWQEGNVFSCSVMHEALHNHYTQKSLSLSLGKGGGGSGGGGSGGGGSDVQLQESGGGLVQPGGSLRLSCAASGSIFSIDIMGWYRQAPGKQRELVATMPEGNYINYADSVKGRLTLSRDKGKNTVYLQLNSLKPEDTAVYYCYGFGVREGRGNVYWGQGTQVTVS", "chain 2": "GPPCPPCPAPEFLGGPSVFLFPPKPKDTLMISRTPEVTCVVVDVSQEDPEVQFNWYVDGVEVHNAKTKPREEQFNSTYRVVSVLTVLHQDWLNGKEYKCKVSNKGLPSSIEKTISKAKGQPREPQVCTLPPSQEEMTKNQVSLSCAVKGFYPSDIAVEWESNGQPENNYKTTPPVLDSDGSFFLVSRLTVDKSRWQEGNVFSCSVMHEALHNHYTQKSLSLSLGKGGGGSGGGGSGGGGSEVQLLESGGGLVQPGGSLRLSCAASGFTFGNYDMAWVRQAPGKRPEWVSSIDTGGDITHYADSVKGRFTISRDNAKNTLYLQMNSLRPEDTAVYWCATDEEYALGPNEFDYYGQGTLVTVSS"}, "B7": {"name": "CIgG4F6A1(G4S)3 (Fc fusion)", "chain 1": "GPPCPPCPAPEFLGGPSVFLFPPKPKDTLMISRTPEVTCVVVDVSQEDPEVQFNWYVDGVEVHNAKTKPREEQFNSTYRVVSVLTVLHQDWLNGKEYKCKVSNKGLPSSIEKTISKAKGQPREPQVYTLPPCQEEMTKNQVSLWCLVKGFYPSDIAVEWESNGQPENNYKTTPPVLDSDGSFFLYSRLTVDKSRWQEGNVFSCSVMHEALHNHYTQKSLSLSLGKGGGGSGGGGSGGGGSDVQLQESGGGLVQAGGSLRLSCAASGLTFGSYDMGWYRQAPGKQRELVGRIRNDGITYYADSVKGRFTMSRDNAKNTVYLQMNSLKPEDTAVYYCAADGTGLGHYDYWGQGTQVTVS", "chain 2": "B6 chain 2"}, "B8": {"name": "CIgG4F6A1(G4S)2 (Fc fusion)", "chain 1": "GPPCPPCPAPEFLGGPSVFLFPPKPKDTLMISRTPEVTCVVVDVSQEDPEVQFNWYVDGVEVHNAKTKPREEQFNSTYRVVSVLTVLHQDWLNGKEYKCKVSNKGLPSSIEKTISKAKGQPREPQVYTLPPCQEEMTKNQVSLWCLVKGFYPSDIAVEWESNGQPENNYKTTPPVLDSDGSFFLYSRLTVDKSRWQEGNVFSCSVMHEALHNHYTQKSLSLSLGKGGGGSGGGGSDVQLQESGGGLVQAGGSLRLSCAASGLTFGSYDMGWYRQAPGKQRELVGRIRNDGITYYADSVKGRFTMSRDNAKNTVYLQMNSLKPEDTAVYYCAADGTGLGHYDYWGQGTQVTVS", "chain 2": "GPPCPPCPAPEFLGGPSVFLFPPKPKDTLMISRTPEVTCVVVDVSQEDPEVQFNWYVDGVEVHNAKTKPREEQFNSTYRVVSVLTVLHQDWLNGKEYKCKVSNKGLPSSIEKTISKAKGQPREPQVCTLPPSQEEMTKNQVSLSCAVKGFYPSDIAVEWESNGQPENNYKTTPPVLDSDGSFFLVSRLTVDKSRWQEGNVFSCSVMHEALHNHYTQKSLSLSLGKGGGGSGGGGSEVQLLESGGGLVQPGGSLRLSCAASGFTFGNYDMAWVRQAPGKRPEWVSSIDTGGDITHYADSVKGRFTISRDNAKNTLYLQMNSLRPEDTAVYWCATDEEYALGPNEFDYYGQGTLVTVSS"}}, "biological_target": "T1, recombinant human IgE (human, UniProt P01854-1 1-428)", "T1 construct": "made in-house (ALK); preloaded on immobilised FcεRIα in the displacement ELISA", "T1 sequence (P01854 other isoform, or with tags, fused parts or gaps)": "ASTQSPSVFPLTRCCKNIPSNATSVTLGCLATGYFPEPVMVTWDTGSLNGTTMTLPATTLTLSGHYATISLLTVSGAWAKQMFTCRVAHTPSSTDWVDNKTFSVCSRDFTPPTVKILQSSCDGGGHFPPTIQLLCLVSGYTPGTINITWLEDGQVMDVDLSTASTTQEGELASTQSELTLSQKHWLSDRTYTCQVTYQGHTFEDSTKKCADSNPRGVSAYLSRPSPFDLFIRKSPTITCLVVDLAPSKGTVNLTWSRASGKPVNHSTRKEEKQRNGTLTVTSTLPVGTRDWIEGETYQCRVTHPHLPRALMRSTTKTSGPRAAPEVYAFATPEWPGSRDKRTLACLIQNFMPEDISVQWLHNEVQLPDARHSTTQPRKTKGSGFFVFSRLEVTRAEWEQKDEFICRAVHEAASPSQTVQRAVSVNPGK", "experiment": "IgE-FcεRIα displacement ELISA", "summary_of_the_method": "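Streptavidin-coated plates carried site-specifically biotinylated recombinant human FcεRIα, loaded with recombinant human IgE at 13 ng/ml. sdAbs in a pM–μM series were added for 1 h, and displaced IgE was washed off. Percent displacement was the signal reduction versus the no-sdAb control, giving EC50 and maximal effect.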", "note": "Changes are numbered by the printed parent chain. Numbers in names are those of the source."}
{"binder": "B1", "values": [{"measurement": "EC50", "value": 14, "unit": "nM"}, {"measurement": "Max effect", "value": 90, "unit": "%"}]}
{"binder": "B2", "values": [{"measurement": "Max effect", "value": 20, "unit": "%"}]}
{"binder": "B3", "values": [{"measurement": "EC50", "value": 9.1, "unit": "nM"}, {"measurement": "Max effect", "value": "> 95", "unit": "%"}]}
{"binder": "B4", "values": [{"measurement": "Max effect", "value": 25, "unit": "%"}]}
{"binder": "B5", "values": [{"measurement": "EC50", "value": 2.9, "unit": "nM"}, {"measurement": "Max effect", "value": "> 95", "unit": "%"}]}
{"binder": "B6", "values": [{"measurement": "EC50", "value": 400, "unit": "nM"}, {"measurement": "Max effect", "value": 65, "unit": "%"}]}
{"binder": "B7", "values": [{"measurement": "EC50", "value": 3.3, "unit": "nM"}, {"measurement": "Max effect", "value": 90, "unit": "%"}]}
{"binder": "B8", "values": [{"measurement": "EC50", "value": 8, "unit": "nM"}, {"measurement": "Max effect", "value": 75, "unit": "%"}]}
